Test results reported in patent US20260232827A1 (Zymeworks, published 2026).

T1: human sodium-dependent phosphate transporter 2B (NaPi2b) (human, UniProt O95436 1-690)
T1 construct: UniProt ID is given as 095436 [sic]; also called hNaPi2b; Hu NaPi2b
T1 sequence: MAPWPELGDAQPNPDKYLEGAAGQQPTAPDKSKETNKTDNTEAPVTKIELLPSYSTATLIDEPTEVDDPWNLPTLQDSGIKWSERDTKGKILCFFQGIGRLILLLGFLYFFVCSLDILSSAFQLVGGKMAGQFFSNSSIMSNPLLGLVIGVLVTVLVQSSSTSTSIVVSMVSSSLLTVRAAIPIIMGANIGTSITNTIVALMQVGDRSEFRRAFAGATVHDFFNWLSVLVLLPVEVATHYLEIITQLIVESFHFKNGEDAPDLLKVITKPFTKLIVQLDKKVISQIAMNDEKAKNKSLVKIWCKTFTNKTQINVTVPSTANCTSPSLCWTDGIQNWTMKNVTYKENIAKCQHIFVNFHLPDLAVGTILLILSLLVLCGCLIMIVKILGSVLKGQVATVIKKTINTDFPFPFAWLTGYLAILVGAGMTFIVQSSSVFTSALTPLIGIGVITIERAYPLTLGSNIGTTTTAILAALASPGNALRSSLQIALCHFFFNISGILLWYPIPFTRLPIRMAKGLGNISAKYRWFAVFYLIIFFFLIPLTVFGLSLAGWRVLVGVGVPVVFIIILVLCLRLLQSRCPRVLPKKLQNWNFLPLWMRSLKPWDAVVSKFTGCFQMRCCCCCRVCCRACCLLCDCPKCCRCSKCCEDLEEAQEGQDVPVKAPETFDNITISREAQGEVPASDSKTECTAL

T2: human FcγR IIA H131 CD32aH (v5774) (human, UniProt P12318 34-217, limits assumed)
T2 construct: In-house reagent
T2 sequence (looked up): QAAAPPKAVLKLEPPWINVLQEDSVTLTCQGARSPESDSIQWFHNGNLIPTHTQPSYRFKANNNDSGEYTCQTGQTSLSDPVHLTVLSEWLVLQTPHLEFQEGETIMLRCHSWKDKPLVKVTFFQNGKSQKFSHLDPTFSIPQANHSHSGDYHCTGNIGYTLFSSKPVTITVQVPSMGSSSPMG

T3: human FcγR IIB Y160 CD32bY (v5777) (human, UniProt P31994 43-217, limits assumed)
T3 construct: In-house reagent
T3 sequence (looked up): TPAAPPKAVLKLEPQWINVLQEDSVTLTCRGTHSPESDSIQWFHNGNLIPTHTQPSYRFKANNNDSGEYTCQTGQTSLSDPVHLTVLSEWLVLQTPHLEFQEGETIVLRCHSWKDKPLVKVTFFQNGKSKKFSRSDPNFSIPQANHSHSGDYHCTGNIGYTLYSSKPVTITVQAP


How the values were obtained:
[1] = target: T1, human sodium-dependent phosphate …; experiment: flow cytometry on IGROV-1 cells (endogenous NaPi2b), 24 h at 4 C, anti-human IgG Fc AF647, APC-A GeoMean
Experimental: (§1) Cells were maintained under standard culture conditions (37° C./5% CO₂) until assay set-up. […] Cells were removed from culture vessels using Cell Dissociation Buffer (Invitrogen, Waltham, MA), seeded at 50,000 cells/well in conical-bottom 96-well plates, and treated with test antibody or antibody-drug conjugate for 24 hours at 4° C. to prevent internalization. […] Following incubation and washing, fluorescence was detected by flow cytometry on a BD LSRFortessa™ Cell Analyzer (BD Biosciences, Franklin Lake, NJ) with 1,000 minimum events collected per well.

[2] = target: T1, human sodium-dependent phosphate …; experiment: flow cytometry on HCC-78 cells (endogenous NaPi2b), 24 h at 4 C, anti-human IgG Fc AF647, APC-A GeoMean
Experimental: as §1

[3] = target: T1, human sodium-dependent phosphate …; experiment: flow cytometry on H441 cells (endogenous NaPi2b), 24 h at 4 C, anti-human IgG Fc AF647, APC-A GeoMean
Experimental: as §1

Biotinylated human FcRn = target: T4, Biotinylated human FcRn (human, UniProt P55899 24-297; P61769 21-119, limits assumed, biotinylated (site not stated)); experiment: SPR (Biacore T200), biotinylated FcRn on neutravidin, antibody as analyte, pH 5.9, steady-state fit
T4 construct: also called Biotinlated human FcRn; human neonatal fragment crystallizable receptor (FcRn)

[4] = target: T5, human FcγR IIIA F159 CD16aF (v5772) (human, UniProt P08637 17-208, limits assumed); experiment: SPR (Biacore T200), antibody captured on protein A, FcγR as analyte, single-cycle, steady-state fit;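 further: five FcγR concentrations per single cycle, 40 s association then 120 s dissociation, responses corrected against a reference flow cell and blank buffer injections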
T5 construct: In-house reagent
Experimental: (§2) Approximately 400-600 RUs of each antibody (2 μg/mL) were captured on the protein A surface on flow cell 2, 3 and 4 by injecting at 10 μL/min for 60 s. Flow cell 1 was used as a reference surface. […] Each in-house FcγR with five concentrations were flowed as analyte using single-cycle kinetics strategy. The flow rate of FcγRs was 50 L/min with contact time of 40 sec and dissociation time of 120 sec. For the high affinity FcγRI CD64, multicycle kinetics were applied. The flow rate of the analyte was 100 L/min with contact time of 100 sec and dissociation time of 650 sec. Blank buffer control was injected using the same flow rate and contact time for each cycle. Surface regeneration was accomplished using 10 mM glycine-HCl, pH 1.5 (Cytiva©, BR100354) for 30 sec with a flow rate of 50 μL/min after each cycle. Binding constants and the maximum observed binding signal (Rmax) were determined using the Biacore™ T200 Evaluation software (version 3.0; GE Healthcare). For single-cycle kinetics, blank-subtracted sensorgrams were analyzed using steady state affinity fitting model. For multicycle kinetics, results were fit to the 1:1 Langmuir binding model.

[5] = target: T2, human FcγR IIA H131 CD32aH (v5774); experiment: as above
Experimental: as §2

[6] = target: T3, human FcγR IIB Y160 CD32bY (v5777); experiment: as above
Experimental: as §2

[7] = target: T6, human FcγR I CD64 (Sino Biological Inc. 10256-H08H) (human, UniProt P12314 16-288); experiment: SPR (Biacore T200), antibody captured on protein A, FcγR as analyte, multicycle, 1:1 fit
T6 construct: Bought reagent
T6 sequence (P12314 16-288 limits assumed): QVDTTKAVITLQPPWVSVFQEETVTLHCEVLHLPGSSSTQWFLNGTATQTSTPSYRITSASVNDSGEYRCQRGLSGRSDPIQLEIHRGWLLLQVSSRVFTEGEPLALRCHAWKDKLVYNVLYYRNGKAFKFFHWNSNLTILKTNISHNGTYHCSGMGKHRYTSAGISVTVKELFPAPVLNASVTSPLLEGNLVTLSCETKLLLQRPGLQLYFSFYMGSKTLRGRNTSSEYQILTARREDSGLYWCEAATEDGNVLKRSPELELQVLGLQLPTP
Experimental: as §2

T5 sequence (P08637 17-208 limits assumed): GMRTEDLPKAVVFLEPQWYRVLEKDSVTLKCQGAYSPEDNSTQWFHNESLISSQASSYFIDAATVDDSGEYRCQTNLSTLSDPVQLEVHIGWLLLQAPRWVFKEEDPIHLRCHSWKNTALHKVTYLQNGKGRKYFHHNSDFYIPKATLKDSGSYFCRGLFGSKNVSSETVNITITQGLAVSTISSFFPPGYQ

Row | EC50 (read off the curve) [1] [nM] | EC50 (read off the curve) [2] [nM] | EC50 (read off the curve) [3] [nM] | Binding percentage (Biotinylated human FcRn) [%] | Kd (Biotinylated human FcRn) [nM] | Binding percentage [4] [%] | Kd [4] [nM] | Binding percentage [5] [%] | Kd [5] [nM] | Binding percentage [6] [%] | Kd [6] [nM] | Binding percentage [7] [%] | Kd [7] [nM] | Binder
1 | ~2 | ~3 | ~0.6 | – | – | – | – | – | – | – | – | – | – | v40502 (LALADS) anti-NaPi2b antibody (antibody, human IgG1, kappa, L234A L235A, v38591 with L234A, L235A and D265S (EU) in the Fc) heavy: not shown light: DVQMTQSPSSLSASVGDRVTITCRASQDVYSYLNWYQQKPGKAVKLLIYYTSRLQSGVPSRFSGSGSGTDYTLTISSLQPEDFATYYCQQYNIFPWTFGQGTKLEIKRTVAAPSVFIFPPSDEQLKSGTASVVCLLNNFYPREAKVQWKVDNALQSGNSQESVTEQDSKDSTYSLSSTLTLSKADYEKHKVYACEVTHQGLSSPVTKSFNRGEC
2 | – | – | – | 20.3 | 61.8 | 98.7 | 2380 | 92.1 | 1010 | 121 | 5780 | 97.7 | – | Upifitamab (v40885, wild-type Fc) (antibody, human IgG1, kappa) heavy 1: GQVQLVQSGAEVVKPGASVKMSCKASGYTFTGYNIHWVKQAPGQGLEWIGAIYPGNGDTSYKQKFRGRATLTADTSTSTVYMELSSLRSEDSAVYYCARGETARATFAYWGQGTLVTVSSASTKGPSVFPLAPSSKSTSGGTAALGCLVKDYFPEPVTVSWNSGALTSGVHTFPAVLQSSGLYSLSSVVTVPSSSLGTQTYICNVNHKPSNTKVDKKVEPKSCDKTHTCPPCPAPELLGGPSVFLFPPKPKDTLMISRTPEVTCVVVDVSHEDPEVKFNWYVDGVEVHNAKTKPREEQYNSTYRVVSVLTVLHQDWLNGKEYKCKVSNKALPAPIEKTISKAKGQPREPQVYVYPPSRDELTKNQVSLTCLVKGFYPSDIAVEWESNGQPENNYKTTPPVLDSDGSFALVSKLTVDKSRWQQGNVFSCSVMHEALHNHYTQKSLSLSPG heavy 2: not shown light: GDIQMTQSPSSLSASVGDRVTITCSASQDIGNFLNWYQQKPGKTVKVLIYYTSSLYSGVPSRFSGSGSGTDYTLTISSLQPEDFATYYCQQYSKLPLTFGQGTKLELKRTVAAPSVFIFPPSDEQLKSGTASVVCLLNNFYPREAKVQWKVDNALQSGNSQESVTEQDSKDSTYSLSSTLTLSKADYEKHKVYACEVTHQGLSSPVTKSFNRGEC
3 | – | – | – | 25.1 | 68.2 | 71.5 | 2020 | 69.6 | 746 | 88.6 | 3740 | 76.9 | 0.0966 | Lifastuzumab (v18993, wild-type Fc) (antibody, human IgG1, kappa, Two different heavy chains (heterodimeric Fc)) heavy 1: GEVQLVESGGGLVQPGGSLRLSCAASGFSFSDFAMSWVRQAPGKGLEWVATIGRVAFHTYYPDSMKGRFTISRDNSKNTLYLQMNSLRAEDTAVYYCARHRGFDVGHFDFWGQGTLVTVSSASTKGPSVFPLAPSSKSTSGGTAALGCLVKDYFPEPVTVSWNSGALTSGVHTFPAVLQSSGLYSLSSVVTVPSSSLGTQTYICNVNHKPSNTKVDKKVEPKSCDKTHTCPPCPAPELLGGPSVFLFPPKPKDTLMISRTPEVTCVVVDVSHEDPEVKFNWYVDGVEVHNAKTKPREEQYNSTYRVVSVLTVLHQDWLNGKEYKCKVSNKALPAPIEKTISKAKGQPREPQVYVYPPSRDELTKNQVSLTCLVKGFYPSDIAVEWESNGQPENNYKTTPPVLDSDGSFALVSKLTVDKSRWQQGNVFSCSVMHEALHNHYTQKSLSLSPG heavy 2: not shown light: GDIQMTQSPSSLSASVGDRVTITCRSSETLVHSSGNTYLEWYQQKPGKAPKLLIYRVSNRFSGVPSRFSGSGSGTDFTLTISSLQPEDFATYYCFQGSFNPLTFGQGTKVEIKRTVAAPSVFIFPPSDEQLKSGTASVVCLLNNFYPREAKVQWKVDNALQSGNSQESVTEQDSKDSTYSLSSTLTLSKADYEKHKVYACEVTHQGLSSPVTKSFNRGEC
